{"source": "paper PMC5550427", "about": "“A family of archaea-like carboxylesterases preferentially expressed in the symbiotic phase of the mycorrhizal fungus Tuber melanosporum” (Scientific Reports, 2017)", "molecules": {"B1": {"name": "TmelEST2 (Tuber melanosporum Mel28) (protein)", "chain": "ETPAPSCPVTNVTTPQLDPITQAYADAISSRPSLFAFPLPEIRDGYQSNVSDPSTEFTTKILSLPVGPTGNVTAYLYKPVSGEREKGKDLLPVIAYFHGGGWVFGGPKSYRGLITNLIRESGAAVFFVDYTLTPKVAYPVPNEQCYAAVQWLLEHGEKLGVDPTNMGFGGDSAGGELSSSVSLLSIKRKTPLPKFQVLIYPATDLACESATFKEFPNGPGLTTDEIRFAASLFTPDPKSRLEDVASPGRASDEDLAKFPETLIVVAEVDPIRQQGEDFGRRLQKLGVRAAIIRVLGTIHGFASIDVLSEAPGAKATIELIGYKFKKALH", "notes": "signal peptide (first 18 residues) removed; N-terminal 6xHis cut with thrombin; E. coli BL21-CodonPlus(DE3)-RIL; ~35 kDa subunit, dimer (~65 kDa); structure residues 34-347; triad Ser190, Asp287, His317"}}, "key": {"TmelEST3 [1]": {"test_system": "T1, TmelEST3", "T1 construct": "signal peptide (first 18 residues) removed; N-terminal 6xHis cut with thrombin; E. coli BL21-CodonPlus(DE3)-RIL; ~35 kDa subunit, dimer (~65 kDa); salt-bridge residues Glu291, Arg304", "experiment": "pH-shift assay with phenol red, A560", "format": "biochemical, Tuber melanosporum", "conditions": "2 mM Tris-HCl pH 8, 25 °C; 1-30 mM substrate; preliminary data; read-out: estimated Km"}, "TmelEST1 [2]": {"test_system": "T2, TmelEST1", "T2 construct": "signal peptide (first 18 residues) removed; N-terminal 6xHis cut with thrombin; E. coli BL21-CodonPlus(DE3)-RIL; ~35 kDa subunit, dimer (~65 kDa); salt-bridge residues Glu284, Arg297; Arg242", "experiment": "pNP release at […] nm, Michaelis-Menten fit", "format": "biochemical, Tuber melanosporum", "conditions": "25 mM Na-phosphate pH 7.0, 25 °C; Triton X-100 stabilized enzyme"}, "TmelEST3 [3]": {"test_system": "T1, TmelEST3", "experiment": "pNP release at […] nm, Michaelis-Menten fit", "format": "biochemical, Tuber melanosporum", "conditions": "25 mM Na-phosphate pH 7.0, 25 °C; Triton X-100 stabilized enzyme"}, "[4]": {"molecular_target": "TmelEST3 (Tuber melanosporum)", "experiment": "SEC; Superdex 200 HR10/30, 200 µg purified protein per run, 25 mM Tris-HCl pH 7.5, 150 mM NaCl, non-denaturing; size unchanged on β-mercaptoethanol supplementation"}, "TmelEST1 [5]": {"test_system": "T2, TmelEST1", "experiment": "pH-shift assay with phenol red, A560", "format": "biochemical, Tuber melanosporum", "conditions": "2 mM Tris-HCl pH 8, 25 °C; 0.25-5 mM substrate; read-out: apparent Km"}, "[6]": {"molecular_target": "TmelEST2 (Tuber melanosporum)", "experiment": "SEC; Superdex 200 HR10/30, 200 µg purified protein per run, 25 mM Tris-HCl pH 7.5, 150 mM NaCl, non-denaturing; size unchanged on β-mercaptoethanol supplementation"}, "[7]": {"molecular_target": "TmelEST1 (Tuber melanosporum)", "experiment": "SEC; Superdex 200 HR10/30, 200 µg purified protein per run, 25 mM Tris-HCl pH 7.5, 150 mM NaCl, non-denaturing; size unchanged on β-mercaptoethanol supplementation"}, "purified protein [8]": {"substrate": "CCCC(=O)Oc1ccc([N+](=O)[O-])cc1", "experiment": "purified protein", "format": "biochemical, Tuber melanosporum", "conditions": "25 mM Na-phosphate pH 7.0, 25 °C, Triton X-100 stabilized enzyme"}, "purified protein [9]": {"substrate": "CCCCC(=O)Oc1ccc([N+](=O)[O-])cc1", "experiment": "purified protein", "format": "biochemical, Tuber melanosporum", "conditions": "25 mM Na-phosphate pH 7.0, 25 °C, Triton X-100 stabilized enzyme"}, "[10]": {"substrate": "COC(=O)c1ccccc1O", "experiment": "pH-shift assay with phenol red, A560", "format": "biochemical, Tuber melanosporum", "conditions": "2 mM Tris-HCl pH 8, 25 °C, 1-30 mM substrate, preliminary data"}}, "data": [{"molecule": "COC(=O)Cc1c[nH]c2ccccc12", "note": "[indole-3-acetic methyl ester]", "values": [{"measurement": "Km", "setting": "TmelEST3 [1]", "value": "~3350", "unit": "µM"}]}, {"molecule": "CCCC(=O)Oc1ccc([N+](=O)[O-])cc1", "note": "[C4, p-nitrophenyl-butyrate]", "values": [{"measurement": "Km", "setting": "TmelEST1 [2]", "value": "140 ± 14", "unit": "µM"}, {"measurement": "Km", "setting": "TmelEST3 [3]", "value": "109 ± 6", "unit": "µM"}]}, {"molecule": "TmelEST3 (enzyme)", "values": [{"measurement": "stoichiometry N", "setting": "[4]", "value": 2}]}, {"molecule": "CCOC(=O)/C=C/c1ccc(O)c(OC)c1", "note": "[ethyl ferulate]", "values": [{"measurement": "Km", "setting": "TmelEST1 [5]", "value": 880, "unit": "µM"}]}, {"molecule": "TmelEST2 (enzyme)", "values": [{"measurement": "stoichiometry N", "setting": "[6]", "value": 2}]}, {"molecule": "CCCCC(=O)Oc1ccc([N+](=O)[O-])cc1", "note": "[C5, pNP-valerate]", "values": [{"measurement": "Km", "setting": "TmelEST1 [2]", "value": "160 ± 20", "unit": "µM"}, {"measurement": "Km", "setting": "TmelEST3 [3]", "value": "137 ± 20", "unit": "µM"}]}, {"molecule": "TmelEST1 (enzyme)", "values": [{"measurement": "stoichiometry N", "setting": "[7]", "value": 2}]}, {"molecule": "B1", "values": [{"measurement": "Km", "setting": "purified protein [8]", "value": "49 ± 8", "unit": "µM"}, {"measurement": "Vmax", "setting": "purified protein [8]", "value": 3840, "unit": "µmol/min/mg"}, {"measurement": "kcat", "setting": "purified protein [8]", "value": 2300, "unit": "s⁻¹"}, {"measurement": "kcat/Km", "setting": "purified protein [8]", "value": "4.7e+07", "unit": "M⁻¹ s⁻¹"}, {"measurement": "Km", "setting": "purified protein [9]", "value": "44 ± 7", "unit": "µM"}, {"measurement": "Vmax", "setting": "purified protein [9]", "value": 4790, "unit": "µmol/min/mg"}, {"measurement": "kcat", "setting": "purified protein [9]", "value": 2870, "unit": "s⁻¹"}, {"measurement": "kcat/Km", "setting": "purified protein [9]", "value": "6.53e+07", "unit": "M⁻¹ s⁻¹"}, {"measurement": "Km", "setting": "[10]", "value": 750, "unit": "µM"}, {"measurement": "kcat", "setting": "[10]", "value": 1, "unit": "s⁻¹"}]}]}
